Where no end group is shown, it is not given here.
T1: phosphorylase a (Oryctolagus cuniculus, UniProt P00489)
T1 sequence (P00489 2-843 limits assumed): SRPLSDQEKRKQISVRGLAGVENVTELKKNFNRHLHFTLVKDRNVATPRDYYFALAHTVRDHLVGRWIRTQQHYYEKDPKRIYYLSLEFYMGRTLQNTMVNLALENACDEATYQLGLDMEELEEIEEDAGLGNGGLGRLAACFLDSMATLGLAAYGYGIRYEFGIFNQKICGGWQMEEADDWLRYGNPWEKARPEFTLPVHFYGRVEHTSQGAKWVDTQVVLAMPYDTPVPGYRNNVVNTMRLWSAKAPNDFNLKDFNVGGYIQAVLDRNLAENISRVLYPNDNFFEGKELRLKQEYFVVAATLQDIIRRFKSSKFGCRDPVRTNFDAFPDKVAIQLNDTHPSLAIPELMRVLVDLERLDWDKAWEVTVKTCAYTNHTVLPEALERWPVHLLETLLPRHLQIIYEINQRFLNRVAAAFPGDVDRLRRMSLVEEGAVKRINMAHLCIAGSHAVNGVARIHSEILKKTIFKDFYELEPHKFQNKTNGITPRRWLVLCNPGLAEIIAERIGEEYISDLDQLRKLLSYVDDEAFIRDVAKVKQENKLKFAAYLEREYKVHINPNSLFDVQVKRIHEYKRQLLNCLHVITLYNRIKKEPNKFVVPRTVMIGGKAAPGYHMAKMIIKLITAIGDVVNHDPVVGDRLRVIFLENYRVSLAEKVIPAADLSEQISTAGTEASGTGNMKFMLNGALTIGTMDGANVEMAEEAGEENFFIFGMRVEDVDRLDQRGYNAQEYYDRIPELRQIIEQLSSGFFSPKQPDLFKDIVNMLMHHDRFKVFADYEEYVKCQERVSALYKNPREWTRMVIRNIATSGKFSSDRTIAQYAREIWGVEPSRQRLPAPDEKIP


system: PP1GL complex; assay: not given; settings: previous experiments; cited from earlier work

| Molecule | disruption of the PP1GL complex |
| --- | --- |
| M110 1-38: peptide comprising the amino terminal 38 residues of the M110 subunit of the myosin targeting subunit of PP1 (MKMADAKQKRNEQLKRWIGSETDLEPPVVKRQKTKVKF; UniProt O14974 1-38, looked up, fragment) | could disrupt the PP1GL complex |
| GM 63-93: peptide comprising residues 63-93 of the skeletal muscle glycogen targeting subunit (RVSFADSFGFNLVSVKEFDCWELPSASTTFD; UniProt Q16821 63-93, looked up, fragment) | did not abolish binding of GL to PP1 |

system: not listed separately; assay: Co-sedimentation of GST-GL fusion proteins with hepatic glycogen; assay type: binding, rabbit; settings: 100 000×g for 1 h, absence of glycogen
Experimental: Protein free glycogen was prepared by the following protocol. Glycogen-protein particles were isolated from the livers of New Zealand White rabbits. Protein was then stripped from the glycogen by boiling for 5 min in 1% (w/v) sodium dodecyl sulphate (SDS). The suspension was cooled to room temperature and centrifuged for 60 min at 100,000×g. The 100,000×g pellet was then resuspended in water, and the centrifugation and resuspension procedure repeated a further two times in order to completely remove residual SDS and protein. Any contaminating nucleotides were removed by incubating the glycogen for 15 min with mixed bed resin, AG 501-X8(D). The resin was removed by filtration and the glycogen concentration determined by the phenol/sulphuric acid method.
Protein free glycogen (10 mg/ml) in 50 mM Tris/HCl pH 7.5, 150 mM NaCl, 0.1% (v/v) 2-mercaptoethanol, 0.02% (w/v) Brij-35, 0.1 mg/ml bovine serum albumin was mixed with GST-GL fusion proteins (50 nM). […] The supernatant and pellet fractions were denatured in SDS, subjected to SDS-polyacrylamide gel electrophoresis and transferred to nitrocellulose. […]

| Molecule | aggregation (pelleted in the absence of glycogen) |
| --- | --- |
| GST-GL: glutathione S-transferase fused to the full-length GL coding region (residues 1-284) of rat liver GL (protein, left off: a dimerising Fc or GST, glutathione S-transferase fused to the full-length GL coding region (residues 1-284) of rat liver GL) MAVDIEYSYSSMAPSLRRERFTFKISPKLNKPLRPCIQLGSKDEAGRMVAPTVQEKKVKKRVSFADNQGLALTMVKVFSEFDDPLDIPFNITELLDNIVSLTTAESESFVLDFPQPSADYLDFRNRLQTNHVCLENCVLKEKAIAGTVKVQNLAFEKVVKIRMTFDTWKSFTDFPCQYVKDTYAGSDRDTFSFDISLPEKIQSYERMEFAVCYECNGQSYWDSNKGKNYRITRAELRSTQGMTEPYNGPDFGISFDQFGSPRCSFGLFPEWPSYLGYEKLGPYY | strong tendency to aggregate |

same assay, conditions: protein free glycogen 10 mg/ml, fusion protein 50 nM, 100,000×g, immunoblot of supernatant and pellet

| Molecule | co-sedimentation with glycogen (binding to glycogen) |
| --- | --- |
| GST-GL(94-284): GST fused to GL residues 94-284 (protein, left off: a dimerising Fc or GST) LLDNIVSLTTAESESFVLDFPQPSADYLDFRNRLQTNHVCLENCVLKEKAIAGTVKVQNLAFEKVVKIRMTFDTWKSFTDFPCQYVKDTYAGSDRDTFSFDISLPEKIQSYERMEFAVCYECNGQSYWDSNKGKNYRITRAELRSTQGMTEPYNGPDFGISFDQFGSPRCSFGLFPEWPSYLGYEKLGPYY | detected exclusively in the 100,000×g pellet |

system: PP1; assay: not given; settings: recent studies; cited from earlier work

| Molecule | binding to PP1 |
| --- | --- |
| GM 63-75: peptide of amino acids 63 to 75 of GM (RVSFADSFGFNLV; UniProt Q16821 63-75, looked up, fragment) | shown to bind PP1 |

target: T1, phosphorylase a; assay: Blot overlay binding of 32P-labelled phosphorylase a to GST-GL fusion proteins; settings: 100 nM 32P-phosphorylase a, fusion proteins on nitrocellulose membranes
Experimental: (§1) GST-GL fusion proteins were separated on SDS-PAGE and transferred to nitrocellulose membranes. They were probed with digoxigenin-PP1γ. Alternatively they were examined for binding of ^32P-labelled phosphorylase a. Non-specific binding to the membranes was blocked by incubation in 5% (w/v) marvel dried milk powder, 25 mM Tris/HCI pH 7.5, 500 mM NaCl for 16 hours. The samples were then probed for 3 h with ^32P-labelled phosphorylase a (100 nM) in 25 mM Tris/HCl pH 7.5, 250 mM NaCl, 1 mg/ml bovine serum albumin. The membranes were subsequently washed (3×30 min) with 25 mM Tris/HCl pH 7.5 before autoradiography.

| Molecule | binding of 32P-labelled phosphorylase a |
| --- | --- |
| GST-GL(1-271): GST fused to GL residues 1-271 (protein, left off: a dimerising Fc or GST) MAVDIEYSYSSMAPSLRRERFTFKISPKLNKPLRPCIQLGSKDEAGRMVAPTVQEKKVKKRVSFADNQGLALTMVKVFSEFDDPLDIPFNITELLDNIVSLTTAESESFVLDFPQPSADYLDFRNRLQTNHVCLENCVLKEKAIAGTVKVQNLAFEKVVKIRMTFDTWKSFTDFPCQYVKDTYAGSDRDTFSFDISLPEKIQSYERMEFAVCYECNGQSYWDSNKGKNYRITRAELRSTQGMTEPYNGPDFGISFDQFGSPRCSFGLFPEW | not |
| GST-GL(1-216): GST fused to GL residues 1-216 (protein, left off: a dimerising Fc or GST) MAVDIEYSYSSMAPSLRRERFTFKISPKLNKPLRPCIQLGSKDEAGRMVAPTVQEKKVKKRVSFADNQGLALTMVKVFSEFDDPLDIPFNITELLDNIVSLTTAESESFVLDFPQPSADYLDFRNRLQTNHVCLENCVLKEKAIAGTVKVQNLAFEKVVKIRMTFDTWKSFTDFPCQYVKDTYAGSDRDTFSFDISLPEKIQSYERMEFAVCYECN | not |
| GST-GL(1-257): GST fused to GL residues 1-257 (protein, left off: a dimerising Fc or GST) MAVDIEYSYSSMAPSLRRERFTFKISPKLNKPLRPCIQLGSKDEAGRMVAPTVQEKKVKKRVSFADNQGLALTMVKVFSEFDDPLDIPFNITELLDNIVSLTTAESESFVLDFPQPSADYLDFRNRLQTNHVCLENCVLKEKAIAGTVKVQNLAFEKVVKIRMTFDTWKSFTDFPCQYVKDTYAGSDRDTFSFDISLPEKIQSYERMEFAVCYECNGQSYWDSNKGKNYRITRAELRSTQGMTEPYNGPDFGISFDQ | not |

Other lines, results leading:

| binding of 32P-labelled phosphorylase a | Molecule |
| --- | --- |
| found to bind | GST-GL(269-284): GST fused to GL residues 269-284, the C-terminal 16 amino acids ({GST}-PEWPSYLGYEKLGPYY) |
| found to bind | GST-GL(257-284): GST fused to GL residues 257-284 ({GST}-QFGSPRCSFGLFPEWPSYLGYEKLGPYY) |
| found to bind | GST-GL: glutathione S-transferase fused to the full-length GL coding region (residues 1-284) of rat liver GL (protein, left off: a dimerising Fc or GST, glutathione S-transferase fused to the full-length GL coding region (residues 1-284) of rat liver GL) MAVDIEYSYSSMAPSLRRERFTFKISPKLNKPLRPCIQLGSKDEAGRMVAPTVQEKKVKKRVSFADNQGLALTMVKVFSEFDDPLDIPFNITELLDNIVSLTTAESESFVLDFPQPSADYLDFRNRLQTNHVCLENCVLKEKAIAGTVKVQNLAFEKVVKIRMTFDTWKSFTDFPCQYVKDTYAGSDRDTFSFDISLPEKIQSYERMEFAVCYECNGQSYWDSNKGKNYRITRAELRSTQGMTEPYNGPDFGISFDQFGSPRCSFGLFPEWPSYLGYEKLGPYY |
| found to bind | GST-GL(216-284): GST fused to GL residues 216-284 (protein) {GST}-NGQSYWDSNKGKNYRITRAELRSTQGMTEPYNGPDFGISFDQFGSPRCSFGLFPEWPSYLGYEKLGPYY |

target: PP1γ (Homo sapiens, UniProt P36873); assay: Blot overlay binding of digoxigenin-labelled PP1γ to GST-GL fusion proteins; settings: fusion proteins on nitrocellulose membranes
Experimental: as §1

PP1γ, sequence (P36873 whole entry, the tested form may be a part): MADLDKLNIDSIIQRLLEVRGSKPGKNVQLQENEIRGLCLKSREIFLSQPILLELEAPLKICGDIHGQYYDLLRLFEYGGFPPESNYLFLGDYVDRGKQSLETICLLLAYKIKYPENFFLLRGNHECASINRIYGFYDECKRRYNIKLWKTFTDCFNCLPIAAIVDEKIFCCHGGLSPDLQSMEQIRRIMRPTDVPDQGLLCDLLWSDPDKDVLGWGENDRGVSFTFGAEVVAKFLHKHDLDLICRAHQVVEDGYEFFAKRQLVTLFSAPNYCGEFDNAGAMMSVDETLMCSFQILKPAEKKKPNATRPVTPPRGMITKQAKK

| Molecule | binding of digoxigenin-labelled PP1γ |
| --- | --- |
| GST-GL(1-59): GST fused to GL residues 1-59 ({GST}-MAVDIEYSYSSMAPSLRRERFTFKISPKLNKPLRPCIQLGSKDEAGRMVAPTVQEKKVK) | not |
| GST-GL(1-94): GST fused to GL residues 1-94 (protein, left off: a dimerising Fc or GST) MAVDIEYSYSSMAPSLRRERFTFKISPKLNKPLRPCIQLGSKDEAGRMVAPTVQEKKVKKRVSFADNQGLALTMVKVFSEFDDPLDIPFNITEL | binds |
| GST-GL(134-284): GST fused to GL residues 134-284 (protein, left off: a dimerising Fc or GST) LENCVLKEKAIAGTVKVQNLAFEKVVKIRMTFDTWKSFTDFPCQYVKDTYAGSDRDTFSFDISLPEKIQSYERMEFAVCYECNGQSYWDSNKGKNYRITRAELRSTQGMTEPYNGPDFGISFDQFGSPRCSFGLFPEWPSYLGYEKLGPYY | not |
| GST-GL(59-284): GST fused to GL residues 59-284 (protein, left off: a dimerising Fc or GST) KKRVSFADNQGLALTMVKVFSEFDDPLDIPFNITELLDNIVSLTTAESESFVLDFPQPSADYLDFRNRLQTNHVCLENCVLKEKAIAGTVKVQNLAFEKVVKIRMTFDTWKSFTDFPCQYVKDTYAGSDRDTFSFDISLPEKIQSYERMEFAVCYECNGQSYWDSNKGKNYRITRAELRSTQGMTEPYNGPDFGISFDQFGSPRCSFGLFPEWPSYLGYEKLGPYY | binds |
| GST-GL(94-284): GST fused to GL residues 94-284 (protein, left off: a dimerising Fc or GST) LLDNIVSLTTAESESFVLDFPQPSADYLDFRNRLQTNHVCLENCVLKEKAIAGTVKVQNLAFEKVVKIRMTFDTWKSFTDFPCQYVKDTYAGSDRDTFSFDISLPEKIQSYERMEFAVCYECNGQSYWDSNKGKNYRITRAELRSTQGMTEPYNGPDFGISFDQFGSPRCSFGLFPEWPSYLGYEKLGPYY | not |

Second part, the molecule after the results:

| binding of digoxigenin-labelled PP1γ | Molecule |
| --- | --- |
| binds | GST-GL: glutathione S-transferase fused to the full-length GL coding region (residues 1-284) of rat liver GL (protein, left off: a dimerising Fc or GST, glutathione S-transferase fused to the full-length GL coding region (residues 1-284) of rat liver GL) MAVDIEYSYSSMAPSLRRERFTFKISPKLNKPLRPCIQLGSKDEAGRMVAPTVQEKKVKKRVSFADNQGLALTMVKVFSEFDDPLDIPFNITELLDNIVSLTTAESESFVLDFPQPSADYLDFRNRLQTNHVCLENCVLKEKAIAGTVKVQNLAFEKVVKIRMTFDTWKSFTDFPCQYVKDTYAGSDRDTFSFDISLPEKIQSYERMEFAVCYECNGQSYWDSNKGKNYRITRAELRSTQGMTEPYNGPDFGISFDQFGSPRCSFGLFPEWPSYLGYEKLGPYY |
| not | GST-GL(170-284): GST fused to GL residues 170-284 (protein, left off: a dimerising Fc or GST) SFTDFPCQYVKDTYAGSDRDTFSFDISLPEKIQSYERMEFAVCYECNGQSYWDSNKGKNYRITRAELRSTQGMTEPYNGPDFGISFDQFGSPRCSFGLFPEWPSYLGYEKLGPYY |
